Our source for the protein production values is a protein production outcome set (Wang et al. 2014).

The data set is described as follows: label from the status in PepcDB records.
Consider “MESSEEDDEYPFIESITPQSKIDSVHQSLTEKGIRKLCCELMDLKDAVENMCGDMRTKYLAFLRISEEAVEMEHELVELRKHISSQGILVQDLMAGVCREMDDWNRLPGDVHDAEVEEDPLPNEVTDPKSEFLEKIDLLLAEHKVDEALEAMDAEERSSPDLKGSVEMSSYKSAFMERKAVLEDQLLRIAKQPSICVAELKHALIGLIRLGKGPSAHQLLLKFYATSLRRRIEAFLPSCLTCPNTFPATLSKLVFSNISVATKESAAMFGDDDNPAYSNKVVQWAEREVEYLVRLVKENASPSETASALRAASICLQDCLNYCKVLEPQGLFLSKLFLVLFRPYVEEVLELNFRRARRVIFDLNETDEGLESPSDFVTILSEFAIASDTMMTDCSIRFMQIVQDILEQLTHLVVLHFGESVLTRILQLYDKYIDFLIKALPGHSDEDGLPELQDNTVLARAETDSEQLALLGAAFTILDELLPRSLVKVWKLQIENGGGEGENSAALNSSAAPELKEWKRHMVQAFDKLRNYFCLQFVLSFIYSREGLTRLDALIYLTETPDDLHLPSLPFQALFSKLQQLAIIAGDVLLGKEKLQKILLARLTETVIIWLSNEQEFWSAFEDESNPLQPSGLQQLILDMNFTVEIARFAGYPFKVVQNHASVVINRAINIFSERGINPQSSLPKTEWFTEAAKSAINRLLMGSEDASEPEEYECEEEEEDDHHIVLPEMDDDSDSEDTSSLSTVDSFESFASASMADLESPSFTDSES”, for which the protein production entry was “failed”.

In the case of “ERRAPRKGNTLYVYGEDMTPTLLRGAFSPFGNIIDLSMDPPRNCAFVTYEKMESADQAVAELNGTQVESVQLKVNIARKQPMLD”, the protein production entry is “not failed”. As for “MDKNETRATIIRIGTDLISRQGFNATGIDAVLKEAGVPKGSFYYYFRSKEEFGLAVIDHFAERYDQRLDTFLNDEEVTPLNRIRNYLESALARLEQNQCSKGCLIGNLGQELADQHERFRGRLDEIFRSWKDRFAACLREAQRGGELAPELDAGVAAGFILSGLEGAILRTKVMKSPQPLRDFIEILFASVLRRQA”, the protein production result is on record as “not failed”. On to “TLDLPMQMAAERALADVPQQAAIVALRPSTGEVLAVAQNAPADALGPIALTGLYPPGSTFKTVTTSAALQAGAATPDTVLPCPGTENIEGRQIPNDDEFDLGAVPLHTAFARSCNTTMGRLAVGLPPDALQQAALQFGLGVDYVTPGLTTVTGNVPVADSPAARVESGIGQGQVTATPFGMAMVAASIANGSTPSPMIVQGQPGTADKTAPTVPANVTSDLRTMMRETVTGGTATALQDIPGLLGKTGTAESGNGPAHGWFVGIKDDLAFAVFIATGDSSAPAVQAAGRFLR”, for which the protein production entry is listed as “failed”. To “MRDMEFIEWYPRGYGVAFKVKRKILEEQSEYQKIEVYETEGFGKLLAIDGTVQLVTEGEKSYHEPLVHPAMLAHPNPRRVLIIGGGDGGAIREVLKHEEVEEVIMVEIDKKVIEISAKYIGIDGGILEKMLSDKHEKGKLIIGDGVKFIEENSGFDVIIVDSTDPVGPAEMLFSEEFYKNAYRALNDPGIYVTQAGSVYLFTDEFLTAYRKMRKVFDKVYYYSFPVIGYASPWAFLVGVKGSIDFMKVDAEKGKKLGLEYYDPDKHETLFQMPRYIVQML” belongs “not failed”. Under “MVKMAKMANKFKELDRTAEEKYKKGRISFRVGRFEDALAAYGEAASAWKEMADLLFDKGKETRGKEFLEKARDAKSCYGMALFKLERYEEALEIVDADLKLKPENPTRWSNRGFVLSALGRNEEALEAFEKALAFDPKSPKILTSQGIVYFKMGFLKKSLETFDRALATEPRKASDWACKIPRFSFFSRNKAPIMKPDNIETWYWKGNVLLELGEKEKALNSFRKALESDPDHLNSLLSGGDLLCEFAEYGEAFKCYVRALKLSPGNEAAEKGKEFCEAKINE” stands “failed”; under “MALTEEEKSINIVDLFIYLIAHWKWFVLSILLFGGYFWYSYCETPFVYSRTAIVMIKTPANSRSAMQLNNADFIGQVNVASEILQFKSKELMRKVIDRLHADVSYMVRDGLRPRELYTDSPVRVAFLEAGLDEVCSLSVIPKNKQQVELADFSLDELEQRKTVNLNDTVDTPLGKLIVFTAENYSESYFDRPIKVTSKSREGMVAFWLSNLTIRQMSGDAALLSMTMNDLSPTRAADILDMLITVYNEEAIKDKNRISVNTAEFIKERLQIIEHELGSVETDIEDLKRANNGVDINTVAGMYIQDSRQYESSIKELDTQLQLVSFIKQYLQDSNKDDELIPSNIGLSDLSIESQISRYNETLLRRNRLVSGSSSNNPVVQELNRIMQTMKQNIYMAVDNLSKSLRLKKQDYMRQESHVRQKVQAVPGKQREMLSIERQQKVKESLYIFLLNKREENALSQAMVDNNARILDPVSGSNLPISPNKYKKMILGVGCGIIVPSVILLLILMLDTRVHNRKEVEAVVSAPFLADIPQTAKASVDAHEVVVRARGLDPLSEAFRILRTNLGFMLSQAQDHKIITLTSFNIGAGKTFVSVNLAASLVQTKKKVLILDLDLRKGKMSEMAHSKHVKGVAHYLSNPSIVVDDLILRDAFGEGLDLIPIGVIAPNPTELLLSRRLDELMDRLRELYDYIIVDNVPIGLVADASVVNRISDLTLFIVRVGKIDRRQLPELERLYQEHKLTNMAVVLNGTKKGSSGYGYGYGYGQGYGYKNAEKKKGLFGRKKKKSRK”, “failed”. Turning to “MRVLVLHSHPVEESYGKALYRQTVESLQKAGHMVDGCDLYEERFDPVLSRHDRLAYHDYPENLKLVESHVERLKAAEGLVICTPIWNFGFPAILKGYFDRVWLPGVSFELVNGKVESRLRHIRKLAAVLTYGATPFRAFAAGNPPKKIVKRVLRAQINPVRPVTFLAHYDMNNCTPETRAKFLARVGGAMERF”, the protein production result was “failed”. To “MPIKKNSHVKTTEMNKYPVLQLKRDPEAIHHYLNGEIRILVPTEYQRIKNEISQKRHRTLFDVLMITGMRYVEVQRLWDHKEWYLKKKNIIHLPEEAQKKHKRTQQERTIHPLPGMFELLLDDFFEARKPPAESNWNRDLRKWAKDAGLNPYGLSAKTTRKTLESWCIAAGMLESTVCLRQGHDNLTSMKHYQGLAFSADELKDIEKQLTVWGMLK” belongs “failed”; to “MKDLSSIVAKFNTQGTITEIKPLGAGLINDTYKVNTQEADAPDYVLQRINHAIFQNVEMLQSNIAAVTGHIRKKLTEAGEADIDRKVLSFLATEEGKTYWFDGESYWRVMVFIPRAKTYETVNPEYSNYAGEAFGNFQAMLADIPETLGETIPDFHNMEFRLKQLRDAVAANAAGRVAEVQYYLDEIEKRADEMCKAERLFREGKLPKRVCHCDTKVNNMMFDEDGKVLCVIDLDTVMPSFIFSDYGDFLRTGANTGDEDDKDLNRVNFNMEIFKAFTKGYLKGAKSFLTPIEIENLPYAAALFPYMQCVRFLADYINGDTYYKIKYPEHNLVRTKAQFKLLQSVEEHTPEMVAFINECLVNGLEHHHHHH”, “failed”. Under “MIFDTEPDAMTLAPDDKPQDRHFDWSGVPIDLGGMEPLEQIARLLCHALVAPAAALTITEGGRLRVLAARGISSSHVEQAMELCKQVPPAPNGVTELIEHATLAQIKLGDAAFPGLPARFIACVPVGAPQTGISGTLCVIDTRERRLASQEHQQLLMFANVAAAQLELQFGAGRREPHSGLLNTRQLQSDLDALAFGSHSVPTIAAFIEVYDTQAANEARQALGMQPLEELVRHASYVLTRALRGKATVYHVASMRFAFFLLNSAPDEMEDLLLDLRDMLHKPVDAAGVPMSLTFHAGVVRFAPQQPDTNDVMRKGLVALGDAINNHAIVCWYSASHDDAIQRSYRLALDAEQALDAGDFRLVFQPRIDLEDLSVTGFEALLRWNHASMGPIGPDEFIPLFEKTALMCTVTNWVIESALVQLAKWRAQGLDFSMSINLSSRDFGNINLAADVINRCKDLAIPTTCIELEITEGRWLRSNVEAVPRLRALRDAGVSVAIDDFGTGYSNFGYLTELPVNVLKLDRSLVTGIATKTGMQMRAEAVVRLANALGYRTVAEGIEHADEIALLRSWGCDEAQGYLLAKPMEAHLVADYVKQTAALRRLP” stands “failed”; under “MITNKKCKGCGAFLNDQINTIGYTPKINETKTNLCQRCFKLIHYNKLEKVSTNLNQSIKETINTLNFSNLQIFAVLDILDLEHTIIDELKEYQNKIIFLVNKIDLLPQRYNSELVNENVVKTLINHGFIDPKIIYVSTHSNTSLKKVMDYIKNATNKKQKSIFFGKSNVGKSSLINALLALNKIKTKLTISSYTNTTINLNKINIQEHQILDAPGVCFDENILNYVRDEDNKSIMISYGAKAINYQINPQQALMISGLVGIQYLKGQKTTFTLYVSSQLDIHRCKLENFIMNFNKRYLLAKFNYLNQDLEFVDHLITLNKDQKTNICIAGLGLLVINAHAEQICIRLPKSVGLKVAKYAII”, “failed”; under “MVPIPNGVSAKETHKLMGRGIAAFALLLLLQVSGSIVTQSGLAAPWWNAMFLWLLLTGIGCFSVASIRGRGLRWTSSILSLLVLAGLLLWPAAVPTTVPVDIGTPWLWAMINVGAAWSAFAFGTLPGCVYTVVIGSVFAVVRTLPQSGSASPSTAIQDASFSTVLGIIICLTIGILRQASERVDTAAENAINRYREAAAETALSNERTRVDGLLHDSVMSALLTASRSGSSLERLSSAELARSALARLGEHEIKQTDATTVSVSELASRIRFTVQDDGDTPTVTVTGEGSTSLLLSGQVVRALFEASTEAVANAVRHSNATRCEVRVLGQDPKGIARVVVSVKDNGDGFRQELVSDRRLGIKVSIIGRMRTIGGTADISSHPGKGTEVILTWAGEA”, “failed”. To “MRILAFPYTHTLSHLSRVLAVALELRRMGHEVVFAGESAKVSFVSQQGFDVVPIHEPDPEMLFGNIRSGKLRFVEDAELLQMLTADIEVIRSLKPDLVLSDGRFSAPLSTHLTNVRHAAIVNASSTEYRALPYVPFFDWMPPWLISRDAMIWKALVRLNLFLEMKLFDNVMKVFKRLSRELNTNRTVTATNCLTGKDITLLADIPEYFPSRNLPASYHYVGPLTWKSVLAPPAWWPLDIPSSPLVYVTMGTTGVSEFFSKLGPSLSTSFFSSIVTTGGQSSELKPMPGKVYVESYLDGDLVMERSDVVICHGGNGTIYQALSHGKPVIGIPTIPDQKFNMRRVEAMGFGKSLDLKQFLEKPSLLADTVKQVLSDHSFRNSAQKIQAVLKSYNAATTSAKILIDSILLEHHHHHH” belongs “failed”; to “SKVEVIYKELGKQHRFSFKGQIFFVSIDSMMEKIDFNIEDSVIVLNFDHAHLWDDSAVNAIDTIVRKFEEKNNVVYVEKLNADSRKIISELSYLNETHL”, “failed”.

In the case of “MKNVLYICIGALLAVLAFSSCNDGIDIRQDYDFSLSSWYLQKQIATGETVEIRFYLDREGDYEKAEYEIGYIQMEGKGEVSDCEGVKLVNREVKPLAEVPGLDTENPVKQVFTLFYRSTSARRSELKFFVRDNFGQEREMTVTFDTESGTTEE”, the protein production result is reported as “failed”. To “AHHHHHHGSKMIKVKVIGRNIEKEIEWREGMKVRDILRAVGFNTESAIAKVNGKVVLEDDEVKDGDFVEVIPVVSGG” belongs “not failed”; to “MSFEAFTELYIRDVKNRLKENTWLTKEHIIRTKILPFFGKLKISEISTKEIITWQNEMLAYRDEKKKPYSQTYLKTLHNQLSAIFNHAVRYYELRSNPAAKVGNMGSELEHHHHHH”, “not failed”; to “MAAALPRTLGELQLYRILQKANLLSYFDAFIQQGGDDVQQLCEAGEEEFLEIMALVGMASKPLHVRRLQKALRDWVTNPGLFNQPLTSLPVSSIPIYKLPEGSPTWLGISCSSYERSSNAREPHLKIPKCAATTCVQSLGQGKSDVVGSLALQSVGESRLWQGHHATESEHSLSPADLGSPASPKESSEALDAAAALSVAECVERMAPTLPKSDLNEVKELLKTNKKLAKMIGHIFEMNDDDPHKEEEIRKYSAIYGRFDSKRKDGKHLTLHELTVNEAAAQLCVKDNALLTRRDELFALARQISREVTYKYTYRTTKSKCGERDELSPKRIKVEDGFPDFQDSVQTLFQQARAKSEELAALSSQQPEKVMAKQMEFLCNQAGYERLQHAERRLSAGLYRQSSEEHSPNGLTSDNSDGQGERPLNLRMPNLQNRQPHHFVVDGELSRLYPSEAKSHSSESLGILKDYPHSAFTLEKKVIKTEPEDSR”, “not failed”.
